Reference: patent publication EP4703383A1 (Shenzhen Genuine Biomedical Technology Co., Ltd, dated 2026)
Numbering of substitutions follows the chain as printed. Names and notes keep the numbering of the source.

B1: P-PR-C05H-v2 (antibody, V domains shown)
VH: EVQLVQSGAEVKKPGASVKVSCKASGFTFTTFWVHWVRQAPGQGLEWIGNIAPGSTSTNYAQKFQGRATLTVDTSISTAYMELSSLRSEDTAVYYCIRHSGNYFNAMDYWGQGTLVTVSS
VL: DIVMTQSPLSLPVTPGEPASISCRSSKSLLHSNGNTYLYWFLQKPGQSPQLLIYRMSNRASGVPDRFSGSGSGTDFTLKISRVEAEDVGVYYCMQHLEYPLTFGQGTKVEIK
notes: Humanized antibody from P-PR-C05H; also called Antibody No. 25; Anti-P-PR-C05H-v2
B2: P-PR-C07H-v (antibody, V domains shown)
VH: EVQLVQSGAEVKKPGSSVKVSCKASGYTFTNNWLAWIRQAPGQGLEWIGDIYPGGVYTNYNQKFQGRATLTADTSTSTAYMELSSLRSEDTAVYFCYYGDFWSAYWGQGTLVTVSS
VL: B1 VL
notes: Humanized antibody from P-PR-C07H; also called Antibody No. 26; hP-PR-C07H-v
B3: HP-PR01D12-v (antibody, V domains shown)
VH: EVQLVESGGGLVQPGGSLRLSCAASGFTFSSFGMNWVRQAPGKGLEWVAYISSGSSIIYYADSVKGRFTISRDNSKNTLYLQMNSLRAEDTAVYYCTRFYGYIPFDYWGQGTLVTVSS
VL: DIQMTQSPSSLSASVGDRVTITCRASSSLIYLHWYQQKPGKAPKLWIYDTSKLASGVPSRFSGSGSGNDYTLTISSLQPEDFATYYCFQGSGYPLTFGQGTKVEIK
notes: also called Antibody No. 27; hHP-PR01D12-v
B4: P-PR-D01H (antibody, V domains shown)
VH: QVQLQQPGSELVRPGASVKLSCKASGFTFTTYWVHWVKQRPGQGLEWIGNISPGGGSTNYDEKFKSKASLTVDTFSNTAYMQLGSLTSEDSAVYYCIRHSGNYFNAMDYWGQGTTLTVSS
VL: DIVMTQAAPSVPVTPGESVSISCRSSKSLLHSNGNTYLYWFLQRPGQSPQLLIYRMSNLASGVPDRFSGSGSGTAFTLRISRVEAEDVGVYYCMQHLEYPLTFGAGTKLELK
notes: also called Antibody No. 8
B5: P-PR-D06H (antibody, V domains shown)
VH: B4 VH with Y32F, G55S, G56T, D61N, S66N, G84S
VL: B4 VL with S20T, N35K, R55W, L101F, A105V
notes: also called Antibody No. 16; P-PR-D06W
B6: P-PR-C07H (antibody, V domains shown)
VH: EVQLQQSGAELVRPGTSVQISCKASGYTFTNNWLAWIKQRPGHGLEWIGDIYPGGVYTNYNEKFKGKATLTADTSSSTAYMQLSSLTSEDSAVYFCYYGDFWSAYWGQGTLVTVSA
VL: B4 VL
notes: also called Antibody No. 5
B7: HP-PR02H02 (antibody, V domains shown)
VH: EVMLVESGGGLVKPGGSLKLACAASGFTFSSYTMSWVRQTPEKRLEWVATISSGGSYTYYPDSVKGRFTISRDNAKNTLYLQLSSLKSEDTAMYYCTRDRYYSTTPDWYFDVWGAGTTLTVSS
VL: DIVITQSPATLSVTPGDSVSLSCRATQIIFNNLHWYQQKSHESPRLLITYTSQSISGIPSRFSGSGSGTDFTLTINSVETEDFGMYFCQQSNTWPRTFGGGTKLEIK
notes: also called Antibody No. 21
B8: HP-PR01B01 (antibody, V domains shown)
VH: EVHLVESGPDLVKPSQSLSLTCTVTGYSITSGYNWHWIRQFPGNKLEWMGYIHYSGSTKYDPSLKSRISFTRDTSRNQFFLQLNSVTTEDRATYYCARSEAGGYSWFAYWGQGTLVTVSA
VL: DIVMTQSPAIMSASPGEKVTMACSASSSVNYMHWYQQKSGTSPKRWIYDTSKLASGVPARFSGSGSGTSYSLTISSMEAEDAATYYCQQWSSNPLTFGAGTKLELK
notes: also called Antibody No. 23

Key:
[1] = target: T1, human PRLR expressed on cells (human, UniProt P16471 25-622); experiment: cell-based or functional assay
T1 sequence: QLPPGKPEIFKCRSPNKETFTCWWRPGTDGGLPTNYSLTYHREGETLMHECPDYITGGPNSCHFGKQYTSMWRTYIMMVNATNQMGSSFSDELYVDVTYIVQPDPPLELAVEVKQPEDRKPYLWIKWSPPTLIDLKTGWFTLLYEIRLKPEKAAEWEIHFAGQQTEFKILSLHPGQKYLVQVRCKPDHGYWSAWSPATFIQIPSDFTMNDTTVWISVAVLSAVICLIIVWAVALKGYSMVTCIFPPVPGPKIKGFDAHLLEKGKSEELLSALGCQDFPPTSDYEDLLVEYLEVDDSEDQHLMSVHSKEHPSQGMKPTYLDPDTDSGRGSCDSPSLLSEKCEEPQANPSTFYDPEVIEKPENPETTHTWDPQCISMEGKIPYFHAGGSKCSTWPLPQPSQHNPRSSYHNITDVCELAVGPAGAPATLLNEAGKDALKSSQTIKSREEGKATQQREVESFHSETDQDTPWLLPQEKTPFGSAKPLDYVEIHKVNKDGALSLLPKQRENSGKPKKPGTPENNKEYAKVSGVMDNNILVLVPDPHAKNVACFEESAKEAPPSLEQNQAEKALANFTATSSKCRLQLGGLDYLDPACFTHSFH

[2] = target: T2, extracellular segment of human PRLR protein with avi-(his)6 tag (hPRLR-ECD-avi-his) (human, UniProt P16471 25-234); experiment: BLI, biotinylated monomeric PRLR ECD on streptavidin sensor, antibody 3.125-100 nM in solution, 1:1 fit
T2 construct: The assays say only 'monomeric human PRLR extracellular domain / ECD'; also called human PRLR extracellular domain; monomeric PRLR ECD
T2 sequence: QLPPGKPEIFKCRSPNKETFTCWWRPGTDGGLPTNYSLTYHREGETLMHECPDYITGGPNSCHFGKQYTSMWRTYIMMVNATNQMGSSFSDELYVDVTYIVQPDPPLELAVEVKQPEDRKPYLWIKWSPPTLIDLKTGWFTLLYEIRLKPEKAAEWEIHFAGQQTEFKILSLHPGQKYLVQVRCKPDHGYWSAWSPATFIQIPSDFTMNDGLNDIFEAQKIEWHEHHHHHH

[3] = target: T3, extracellular segment of the PRLR protein of cynomolgus monkey with avi-(his)6 tag (cynoPRLR-ECD-avi-his) (cynomolgus monkey); experiment: as above
T3 construct: The assays say only 'monomeric monkey PRLR extracellular domain / ECD'; also called cynomolgus monkey PRLR extracellular domain; Monkey PRLR
T3 chain: T2 sequence with I76V, A110T, I125M, I158T, T207I

[4] = target: T2, extracellular segment of human PRLR …; experiment: BLI epitope binning on biotinylated human PRLR ECD, 100 nM each; competitor: P-PR-C05H-v2; which axis is the first antibody is not stated
[5] = target: T2, extracellular segment of human PRLR …; experiment: BLI epitope binning on biotinylated human PRLR ECD, 100 nM each; competitor: HP-PR01D12-v; which axis is the first antibody is not stated
[6] = target: T2, extracellular segment of human PRLR …; experiment: BLI epitope binning on biotinylated human PRLR ECD, 100 nM each; competitor: P-PR-C07H-v; which axis is the first antibody is not stated
[7] = target: T2, extracellular segment of human PRLR …; experiment: BLI (Octet), antibody on Protein A sensor, monomeric PRLR ECD in solution, 1:1 fit
[8] = target: T2, extracellular segment of human PRLR …; experiment: ELISA, coated antigen 1 ug/mL, antibody 10 ug/mL
[9] = target: T4, recombinant mesothelin protein with the same tag; experiment: ELISA, coated antigen 1 ug/mL, antibody 10 ug/mL
T4 construct: Control antigen of the species-specific ELISA; also called Control protein

[10] = target: T3, extracellular segment of the PRLR …; experiment: ELISA, coated antigen 1 ug/mL
[11] = target: T3, extracellular segment of the PRLR …; experiment: ELISA, coated antigen 1 ug/mL, antibody 10 ug/mL

Binder	Blocking percentage (%) of 100 nM antibody (STAT5 luciferase reporter) [1] [%]	Kd [2] [pM]	koff [2] [s⁻¹]	kon [2] [M⁻¹ s⁻¹]	Kd [3] [pM]	koff [3] [s⁻¹]	kon [3] [M⁻¹ s⁻¹]	ratio of the binding signal of the second antibody to the reference [4] [%]	ratio of the binding signal of the second antibody to the reference [5] [%]	ratio of the binding signal of the second antibody to the reference [6] [%]	Kd [7] [pM]	koff [7] [s⁻¹]	kon [7] [M⁻¹ s⁻¹]	absorbance at 450nm [8]	absorbance at 450nm [9]	binding result [10]	absorbance at 450nm [11]
B1	17.3	< 1	5.03e-07	937000	< 1	4.08e-07	1.04e+06	11.2	15.5	35	–	–	–	–	–	–	–
B2	100	3940	0.0032	813000	< 1	4.19e-07	663000	52.7	49.8	13.4	–	–	–	–	–	–	–
B3	46.7	1.13	4.88e-07	431000	< 1	3.43e-07	453000	9.2	14.4	31.8	–	–	–	–	–	–	–
B4	–	–	–	–	–	–	–	–	–	–	1.05	2.44e-07	232000	2.02	0.068	–	–
B5	–	–	–	–	–	–	–	–	–	–	3380	0.000389	115000	2.48	0.137	–	–
B6	–	–	–	–	–	–	–	–	–	–	3640	0.000386	106000	2.29	0.062	–	–
B7	–	–	–	–	–	–	–	–	–	–	–	–	–	–	0.076	no binding (tested: 10 µg/mL)	0.097
B8	–	–	–	–	–	–	–	–	–	–	–	–	–	–	0.076	no binding (tested: 10 µg/mL)	0.077
